Source: the supplement of paper PMC10065799, “High-throughput profiling of sequence recognition by tyrosine kinases and SH2 domains using bacterial peptide display” (eLife, 2023)

Tested on: AncSZ
Test: phosphorylation enrichment, bacterial display (enrichment ratio); higher = better substrate or ligand; peptides without Tyr show the background
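Also: 11-residue human phosphosite peptides and single-mutation variants displayed on the E. coli surface, counted by deep sequencing, each peptide's frequency after selection divided by its frequency in the unselected input library; frequency after pTyr selection over input frequency; kinase dosed for 20-30% of maximal phosphorylation in three min.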

Going from RTLIRYAKLGN [BEST1_Y131_N133K] to DDEENYENVPR [FCRL3_Y722], the phosphorylation enrichment falls from 1.4 to 1.3.

Compared with TDKLFYIFTPG [SLC27A4_Y243_S247P_YF], MASISYDFCRV [BST2_Y6_T4I_YF] is lower in phosphorylation enrichment: 1.36 for the first, 1.24 for the second.

Going from KIVYVYVKKRS [DNAI2_Y7_E2K] to FKDGQYWIRGR [ACSF3_Y466], the phosphorylation enrichment falls from 1.13 to 0.78.

First: DFFDLYGGEKL [PTPN11_Y66_F71L_YF]
Second: REIIAYQPFGK [PRKCG_Y529_P524R_YF]
The phosphorylation enrichment of the first is higher: 1.54 for the first, 0.524 for the second.

Going from LIDGFYRLTAD [JAK2_Y373_YF] to QRRYVYYYSYL [PTEN_Y176], the phosphorylation enrichment rises from 1.29 to 1.88.

First: SKLTIYDGRPS [MTM1_Y277_A279G]
Second: TSFQMYDKGLV [IARS2_Y231_F227S_YF]
The phosphorylation enrichment of the first is lower: 0.713 for the first, 0.925 for the second.

Compared with SVICTYSPALN [TP53_Y126_T123I], ILTLKYLIEHG [ACTG1_Y69_P70L] is lower in phosphorylation enrichment: 1.36 for the first, 1.05 for the second.

First: WLFFRYLAIGC [ATP2A2_Y836]
Second: LINLKYSVEEE [PCDH19_Y27]
The phosphorylation enrichment of the first is higher: 1.51 for the first, 1.36 for the second.

Tested on: c-Src
Test: as above

First: RTLIRYAKLGN [BEST1_Y131_N133K]
Second: DDEENYENVPR [FCRL3_Y722]
The phosphorylation enrichment of the first is higher: 1.02 for the first, 0.428 for the second.

First: TDKLFYIFTPG [SLC27A4_Y243_S247P_YF]
Second: MASISYDFCRV [BST2_Y6_T4I_YF]
The phosphorylation enrichment of the first is higher: 0.556 for the first, 0.497 for the second.

First: KIVYVYVKKRS [DNAI2_Y7_E2K]
Second: FKDGQYWIRGR [ACSF3_Y466]
The phosphorylation enrichment of the first is lower: 0.433 for the first, 0.501 for the second.

Going from DFFDLYGGEKL [PTPN11_Y66_F71L_YF] to REIIAYQPFGK [PRKCG_Y529_P524R_YF], the phosphorylation enrichment falls from 3.79 to 0.466.

Going from LIDGFYRLTAD [JAK2_Y373_YF] to QRRYVYYYSYL [PTEN_Y176], the phosphorylation enrichment rises from 0.86 to 4.21.

First: SKLTIYDGRPS [MTM1_Y277_A279G]
Second: TSFQMYDKGLV [IARS2_Y231_F227S_YF]
The phosphorylation enrichment of the first is higher: 0.612 for the first, 0.475 for the second.

Going from SVICTYSPALN [TP53_Y126_T123I] to ILTLKYLIEHG [ACTG1_Y69_P70L], the phosphorylation enrichment falls from 0.58 to 0.483.

Going from WLFFRYLAIGC [ATP2A2_Y836] to LINLKYSVEEE [PCDH19_Y27], the phosphorylation enrichment rises from 0.432 to 1.19.

Tested on: Fer (mouse)
Test: as above

Going from RTLIRYAKLGN [BEST1_Y131_N133K] to DDEENYENVPR [FCRL3_Y722], the phosphorylation enrichment rises from 0.561 to 0.57.

Compared with TDKLFYIFTPG [SLC27A4_Y243_S247P_YF], MASISYDFCRV [BST2_Y6_T4I_YF] is higher in phosphorylation enrichment: 0.544 for the first, 1.59 for the second.

Compared with KIVYVYVKKRS [DNAI2_Y7_E2K], FKDGQYWIRGR [ACSF3_Y466] is lower in phosphorylation enrichment: 0.514 for the first, 0.387 for the second.

First: DFFDLYGGEKL [PTPN11_Y66_F71L_YF]
Second: REIIAYQPFGK [PRKCG_Y529_P524R_YF]
The phosphorylation enrichment of the first is higher: 0.816 for the first, 0.291 for the second.

Compared with LIDGFYRLTAD [JAK2_Y373_YF], QRRYVYYYSYL [PTEN_Y176] is higher in phosphorylation enrichment: 0.523 for the first, 0.987 for the second.

Going from SKLTIYDGRPS [MTM1_Y277_A279G] to TSFQMYDKGLV [IARS2_Y231_F227S_YF], the phosphorylation enrichment rises from 0.409 to 0.877.

Compared with SVICTYSPALN [TP53_Y126_T123I], ILTLKYLIEHG [ACTG1_Y69_P70L] is lower in phosphorylation enrichment: 0.651 for the first, 0.562 for the second.

Going from WLFFRYLAIGC [ATP2A2_Y836] to LINLKYSVEEE [PCDH19_Y27], the phosphorylation enrichment rises from 0.573 to 0.806.

Molecular target: FGFR1 (UniProt P11362)
Sequence (P11362 whole entry, looked up): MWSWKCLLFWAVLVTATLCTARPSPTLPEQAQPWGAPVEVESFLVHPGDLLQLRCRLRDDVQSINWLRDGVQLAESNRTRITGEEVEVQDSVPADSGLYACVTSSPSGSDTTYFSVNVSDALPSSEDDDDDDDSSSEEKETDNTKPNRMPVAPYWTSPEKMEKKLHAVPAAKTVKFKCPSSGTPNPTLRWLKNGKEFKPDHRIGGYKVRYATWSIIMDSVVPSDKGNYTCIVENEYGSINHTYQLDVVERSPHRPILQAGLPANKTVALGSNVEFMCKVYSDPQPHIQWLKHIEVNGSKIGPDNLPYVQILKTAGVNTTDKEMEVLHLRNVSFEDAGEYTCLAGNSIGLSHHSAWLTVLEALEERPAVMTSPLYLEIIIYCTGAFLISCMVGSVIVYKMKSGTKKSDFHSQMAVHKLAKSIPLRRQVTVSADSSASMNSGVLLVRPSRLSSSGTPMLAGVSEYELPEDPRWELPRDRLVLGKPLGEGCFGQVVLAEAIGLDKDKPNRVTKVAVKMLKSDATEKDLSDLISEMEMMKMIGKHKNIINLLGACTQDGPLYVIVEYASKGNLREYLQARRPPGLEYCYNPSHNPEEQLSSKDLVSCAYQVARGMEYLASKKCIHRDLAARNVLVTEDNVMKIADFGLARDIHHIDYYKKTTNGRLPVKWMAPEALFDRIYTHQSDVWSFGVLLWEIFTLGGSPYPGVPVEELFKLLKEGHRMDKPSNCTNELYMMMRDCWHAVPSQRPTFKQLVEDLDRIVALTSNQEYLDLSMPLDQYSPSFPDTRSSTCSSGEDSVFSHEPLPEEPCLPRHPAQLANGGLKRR
Test: as above

First: RTLIRYAKLGN [BEST1_Y131_N133K]
Second: DDEENYENVPR [FCRL3_Y722]
The phosphorylation enrichment of the first is higher: 0.632 for the first, 0.567 for the second.

First: TDKLFYIFTPG [SLC27A4_Y243_S247P_YF]
Second: MASISYDFCRV [BST2_Y6_T4I_YF]
The phosphorylation enrichment of the first is higher: 0.91 for the first, 0.496 for the second.

Going from KIVYVYVKKRS [DNAI2_Y7_E2K] to FKDGQYWIRGR [ACSF3_Y466], the phosphorylation enrichment falls from 0.531 to 0.361.

First: DFFDLYGGEKL [PTPN11_Y66_F71L_YF]
Second: REIIAYQPFGK [PRKCG_Y529_P524R_YF]
The phosphorylation enrichment of the first is higher: 0.582 for the first, 0.305 for the second.

Compared with LIDGFYRLTAD [JAK2_Y373_YF], QRRYVYYYSYL [PTEN_Y176] is higher in phosphorylation enrichment: 0.754 for the first, 6.01 for the second.

First: SKLTIYDGRPS [MTM1_Y277_A279G]
Second: TSFQMYDKGLV [IARS2_Y231_F227S_YF]
The phosphorylation enrichment of the first is lower: 0.456 for the first, 0.651 for the second.

First: SVICTYSPALN [TP53_Y126_T123I]
Second: ILTLKYLIEHG [ACTG1_Y69_P70L]
The phosphorylation enrichment of the first is higher: 0.61 for the first, 0.466 for the second.

Going from WLFFRYLAIGC [ATP2A2_Y836] to LINLKYSVEEE [PCDH19_Y27], the phosphorylation enrichment rises from 0.503 to 0.525.

Molecular target: EPHB2 (UniProt P29323)
Sequence (P29323 whole entry, looked up): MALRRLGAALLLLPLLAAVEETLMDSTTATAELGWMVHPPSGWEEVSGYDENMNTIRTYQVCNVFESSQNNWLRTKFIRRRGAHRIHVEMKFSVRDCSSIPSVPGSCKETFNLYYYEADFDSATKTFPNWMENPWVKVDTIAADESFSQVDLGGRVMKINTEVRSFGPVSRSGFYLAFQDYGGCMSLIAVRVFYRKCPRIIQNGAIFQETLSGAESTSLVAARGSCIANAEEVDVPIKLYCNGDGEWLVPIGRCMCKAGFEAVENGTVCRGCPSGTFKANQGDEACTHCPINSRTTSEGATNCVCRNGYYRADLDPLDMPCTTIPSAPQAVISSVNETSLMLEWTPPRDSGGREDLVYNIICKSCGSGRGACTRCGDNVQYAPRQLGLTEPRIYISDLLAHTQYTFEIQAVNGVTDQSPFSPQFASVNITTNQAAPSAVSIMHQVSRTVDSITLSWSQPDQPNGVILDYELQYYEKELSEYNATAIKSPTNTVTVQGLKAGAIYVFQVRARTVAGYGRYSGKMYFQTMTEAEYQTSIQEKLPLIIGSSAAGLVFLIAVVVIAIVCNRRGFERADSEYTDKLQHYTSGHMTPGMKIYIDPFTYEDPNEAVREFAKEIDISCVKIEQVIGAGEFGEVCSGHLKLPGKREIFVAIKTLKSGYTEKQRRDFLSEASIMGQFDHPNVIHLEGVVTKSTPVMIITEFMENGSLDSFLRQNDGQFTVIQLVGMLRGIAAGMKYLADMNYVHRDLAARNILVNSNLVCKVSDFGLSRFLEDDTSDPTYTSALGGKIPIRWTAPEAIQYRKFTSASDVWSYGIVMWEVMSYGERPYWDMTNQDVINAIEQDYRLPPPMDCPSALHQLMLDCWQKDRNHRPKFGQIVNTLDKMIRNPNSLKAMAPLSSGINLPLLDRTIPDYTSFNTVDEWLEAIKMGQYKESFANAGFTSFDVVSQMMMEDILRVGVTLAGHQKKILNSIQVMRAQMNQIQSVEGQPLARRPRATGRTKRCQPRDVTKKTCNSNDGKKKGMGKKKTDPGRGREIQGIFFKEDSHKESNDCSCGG
Test: as above

Compared with RTLIRYAKLGN [BEST1_Y131_N133K], DDEENYENVPR [FCRL3_Y722] is lower in phosphorylation enrichment: 0.775 for the first, 0.572 for the second.

Going from TDKLFYIFTPG [SLC27A4_Y243_S247P_YF] to MASISYDFCRV [BST2_Y6_T4I_YF], the phosphorylation enrichment rises from 0.583 to 0.712.

Compared with KIVYVYVKKRS [DNAI2_Y7_E2K], FKDGQYWIRGR [ACSF3_Y466] is lower in phosphorylation enrichment: 0.538 for the first, 0.369 for the second.

Going from DFFDLYGGEKL [PTPN11_Y66_F71L_YF] to REIIAYQPFGK [PRKCG_Y529_P524R_YF], the phosphorylation enrichment falls from 0.901 to 0.385.

Compared with LIDGFYRLTAD [JAK2_Y373_YF], QRRYVYYYSYL [PTEN_Y176] is higher in phosphorylation enrichment: 0.883 for the first, 1.83 for the second.

Going from SKLTIYDGRPS [MTM1_Y277_A279G] to TSFQMYDKGLV [IARS2_Y231_F227S_YF], the phosphorylation enrichment rises from 0.499 to 0.746.

Compared with SVICTYSPALN [TP53_Y126_T123I], ILTLKYLIEHG [ACTG1_Y69_P70L] is lower in phosphorylation enrichment: 0.673 for the first, 0.618 for the second.

First: WLFFRYLAIGC [ATP2A2_Y836]
Second: LINLKYSVEEE [PCDH19_Y27]
The phosphorylation enrichment of the first is lower: 0.496 for the first, 0.755 for the second.

Tested on: c-Abl (mouse)
Test: as above

First: RTLIRYAKLGN [BEST1_Y131_N133K]
Second: DDEENYENVPR [FCRL3_Y722]
The phosphorylation enrichment of the first is higher: 1.07 for the first, 0.786 for the second.

Going from TDKLFYIFTPG [SLC27A4_Y243_S247P_YF] to MASISYDFCRV [BST2_Y6_T4I_YF], the phosphorylation enrichment rises from 0.873 to 0.908.

Compared with KIVYVYVKKRS [DNAI2_Y7_E2K], FKDGQYWIRGR [ACSF3_Y466] is lower in phosphorylation enrichment: 0.758 for the first, 0.491 for the second.

Going from DFFDLYGGEKL [PTPN11_Y66_F71L_YF] to REIIAYQPFGK [PRKCG_Y529_P524R_YF], the phosphorylation enrichment falls from 1.02 to 0.705.

Going from LIDGFYRLTAD [JAK2_Y373_YF] to QRRYVYYYSYL [PTEN_Y176], the phosphorylation enrichment rises from 0.816 to 1.09.

Going from SKLTIYDGRPS [MTM1_Y277_A279G] to TSFQMYDKGLV [IARS2_Y231_F227S_YF], the phosphorylation enrichment falls from 0.508 to 0.473.

Going from SVICTYSPALN [TP53_Y126_T123I] to ILTLKYLIEHG [ACTG1_Y69_P70L], the phosphorylation enrichment falls from 0.97 to 0.84.

Going from WLFFRYLAIGC [ATP2A2_Y836] to LINLKYSVEEE [PCDH19_Y27], the phosphorylation enrichment rises from 1.09 to 1.12.

Molecular target: Fyn (UniProt P06241)
Sequence (P06241 whole entry, looked up): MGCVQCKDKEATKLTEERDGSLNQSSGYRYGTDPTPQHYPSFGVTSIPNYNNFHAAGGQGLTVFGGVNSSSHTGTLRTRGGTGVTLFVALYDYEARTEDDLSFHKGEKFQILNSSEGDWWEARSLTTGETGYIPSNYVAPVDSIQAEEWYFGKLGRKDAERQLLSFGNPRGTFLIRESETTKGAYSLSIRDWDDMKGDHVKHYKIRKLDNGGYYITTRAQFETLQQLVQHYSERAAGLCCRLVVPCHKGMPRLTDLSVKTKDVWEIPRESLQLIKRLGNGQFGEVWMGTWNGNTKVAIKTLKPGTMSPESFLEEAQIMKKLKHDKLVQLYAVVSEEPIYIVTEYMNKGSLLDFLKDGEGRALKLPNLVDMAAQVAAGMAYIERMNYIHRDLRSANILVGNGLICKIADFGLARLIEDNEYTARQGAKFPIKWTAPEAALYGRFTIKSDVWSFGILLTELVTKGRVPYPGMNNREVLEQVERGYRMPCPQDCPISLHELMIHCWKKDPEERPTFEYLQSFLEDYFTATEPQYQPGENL
Test: as above

First: RTLIRYAKLGN [BEST1_Y131_N133K]
Second: DDEENYENVPR [FCRL3_Y722]
The phosphorylation enrichment of the first is higher: 0.848 for the first, 0.555 for the second.

Going from TDKLFYIFTPG [SLC27A4_Y243_S247P_YF] to MASISYDFCRV [BST2_Y6_T4I_YF], the phosphorylation enrichment rises from 0.392 to 0.554.

Going from KIVYVYVKKRS [DNAI2_Y7_E2K] to FKDGQYWIRGR [ACSF3_Y466], the phosphorylation enrichment falls from 0.515 to 0.448.

First: DFFDLYGGEKL [PTPN11_Y66_F71L_YF]
Second: REIIAYQPFGK [PRKCG_Y529_P524R_YF]
The phosphorylation enrichment of the first is higher: 2.1 for the first, 0.499 for the second.

Going from LIDGFYRLTAD [JAK2_Y373_YF] to QRRYVYYYSYL [PTEN_Y176], the phosphorylation enrichment rises from 0.698 to 3.65.

Compared with SKLTIYDGRPS [MTM1_Y277_A279G], TSFQMYDKGLV [IARS2_Y231_F227S_YF] is higher in phosphorylation enrichment: 0.539 for the first, 0.649 for the second.

First: SVICTYSPALN [TP53_Y126_T123I]
Second: ILTLKYLIEHG [ACTG1_Y69_P70L]
The phosphorylation enrichment of the first is higher: 0.546 for the first, 0.526 for the second.

First: WLFFRYLAIGC [ATP2A2_Y836]
Second: LINLKYSVEEE [PCDH19_Y27]
The phosphorylation enrichment of the first is lower: 0.477 for the first, 0.579 for the second.

Molecular target: Hck (UniProt P08631)
Sequence (P08631 whole entry, looked up): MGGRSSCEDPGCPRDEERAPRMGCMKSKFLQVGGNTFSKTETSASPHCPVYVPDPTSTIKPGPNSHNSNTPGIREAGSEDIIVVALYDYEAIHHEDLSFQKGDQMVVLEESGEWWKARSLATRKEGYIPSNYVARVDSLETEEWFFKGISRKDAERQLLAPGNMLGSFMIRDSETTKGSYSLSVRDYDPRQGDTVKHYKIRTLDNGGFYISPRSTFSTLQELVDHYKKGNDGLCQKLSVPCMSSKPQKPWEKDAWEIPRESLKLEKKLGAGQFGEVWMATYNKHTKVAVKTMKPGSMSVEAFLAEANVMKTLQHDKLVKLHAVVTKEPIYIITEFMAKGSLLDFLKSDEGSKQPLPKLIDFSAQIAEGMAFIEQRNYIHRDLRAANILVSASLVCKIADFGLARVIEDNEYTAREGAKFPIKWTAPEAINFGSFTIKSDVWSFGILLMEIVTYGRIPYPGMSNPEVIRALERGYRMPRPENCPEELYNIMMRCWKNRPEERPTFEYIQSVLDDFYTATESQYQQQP
Test: as above

First: RTLIRYAKLGN [BEST1_Y131_N133K]
Second: DDEENYENVPR [FCRL3_Y722]
The phosphorylation enrichment of the first is higher: 0.849 for the first, 0.589 for the second.

Going from TDKLFYIFTPG [SLC27A4_Y243_S247P_YF] to MASISYDFCRV [BST2_Y6_T4I_YF], the phosphorylation enrichment rises from 0.607 to 0.629.

First: KIVYVYVKKRS [DNAI2_Y7_E2K]
Second: FKDGQYWIRGR [ACSF3_Y466]
The phosphorylation enrichment of the first is lower: 0.587 for the first, 0.614 for the second.

Compared with DFFDLYGGEKL [PTPN11_Y66_F71L_YF], REIIAYQPFGK [PRKCG_Y529_P524R_YF] is lower in phosphorylation enrichment: 3.61 for the first, 0.438 for the second.

First: LIDGFYRLTAD [JAK2_Y373_YF]
Second: QRRYVYYYSYL [PTEN_Y176]
The phosphorylation enrichment of the first is lower: 0.807 for the first, 3.63 for the second.

First: SKLTIYDGRPS [MTM1_Y277_A279G]
Second: TSFQMYDKGLV [IARS2_Y231_F227S_YF]
The phosphorylation enrichment of the first is higher: 1.44 for the first, 0.934 for the second.

First: SVICTYSPALN [TP53_Y126_T123I]
Second: ILTLKYLIEHG [ACTG1_Y69_P70L]
The phosphorylation enrichment of the first is lower: 0.523 for the first, 0.557 for the second.

Compared with WLFFRYLAIGC [ATP2A2_Y836], LINLKYSVEEE [PCDH19_Y27] is lower in phosphorylation enrichment: 0.462 for the first, 0.447 for the second.
